Test results from patent US7465453B2, “Polypeptide fragments of CKLF1” (Peking University, priority 2004, dated 2008).
Entries after “also recorded” stand apart in the source; their conditions may differ.

Assays:
Assay type in all cases: cell-based
[1] = target: T1, CCR4 (Homo sapiens, UniProt P51679); experiment: Chemotaxis assay (48-well microchemotaxis chamber) of HEK293 cells transfected with CCR4; conditions: for chemotaxis induced after PTX pretreatment: CCR4-transfected HEK293 cells treated with 100 ng/ml PTX at 37° C. for 30 min; for desensitization of the receptor to subsequent stimulation with TARC, C27 or C19 (chemotaxis): HEK293/CCR4, pretreatment TARC or 2 μg/ml C27 or C19, 37° C., 30 min
T1 construct: The cDNA fragments covering the open reading frames for various chemokine receptors were obtained as follows; expressed in transfected cells; host or cells: HEK293 (transient, electroporation)
T1 sequence (P51679 1-360): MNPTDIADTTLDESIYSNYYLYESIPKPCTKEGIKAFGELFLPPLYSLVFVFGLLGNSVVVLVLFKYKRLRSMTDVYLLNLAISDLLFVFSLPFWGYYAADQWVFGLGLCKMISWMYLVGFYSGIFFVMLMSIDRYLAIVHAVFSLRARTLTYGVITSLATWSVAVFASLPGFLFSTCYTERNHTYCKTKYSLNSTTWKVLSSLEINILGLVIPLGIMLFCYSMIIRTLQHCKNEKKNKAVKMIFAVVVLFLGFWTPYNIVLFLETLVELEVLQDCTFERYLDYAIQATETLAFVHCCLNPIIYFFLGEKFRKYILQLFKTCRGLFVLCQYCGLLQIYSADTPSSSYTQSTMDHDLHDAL
Procedure: (§1) HEK293 cells were grown in RPMI 1640 supplemented with 10% heat-inactivated FBS, penicillin (100 U/ml) and streptomycin (100 μg/ml). Every 4×10^6 HEK293 cells in 400 μl were transiently transfected by electroporation with 15 μg of the expression plasmid at 120 V, 20 ms using an electric pulse generator (Electro Square Porator ECM 830, BTX, San Diego, Calif.), and calcium mobilization assay and chemotaxis assays were performed 48 hours later.
The chemotaxis assay was performed using a 48-well microchemotaxis chamber (Neutroprobe; Cabin John, Md., U.S.A.). Chemoattractants were diluted in HEPES-buffered RPMI 1640 medium supplemented with 0.1% BSA and placed in the lower wells (28 μl/well). HEK293 cells transfected with pcDI-CCR4, -CCR5 were resuspended in the same medium at 2×10^6 cells/ml and added to the upper wells (50 μl/well), which were separated from the lower wells by a polyvinylpyrrolidone-free polycarbonate filter with 8-μm pores. The chamber was incubated for 2 hours at 37° C. in 5% CO2 and 95% air. Filters were removed from the chamber, washed, fixed, and stained with Three Step Stain Set. Cells that migrated were counted in 5 randomly selected high power fields (400×) per well. The chemotactic index (CI) was calculated from the number of cells that migrated to the control. Significant chemotaxis was defined as CI>2. In some experiments, cells were pretreated with TARC, RANTES, purified CKLF-myc protein or secreted CKLF1 peptides for 30 min. at 37° C., or 100 ng/ml PTX (ALEXIS Biochemicals Corporation) for 6 hours at 37° C. prior to subsequent stimulations.

[2] = tested on: U937 cells; experiment: Chemotaxis of U937 cells; conditions: for migration (chemotaxis) of U937 cells: C19, C27, RANTES: U937 cells stimulated by 30 ng/ml IFN-γ
Procedure: The chemotaxis assay was performed using a 48-well microchemotaxis chamber (Neutroprobe, Cabin John, Md., U.S.A.). U937 cells were stimulated by 30 ng/ml IFN-γ for 4 days because IFN-γ could increase the expression of chemokine receptors CCR1, CCR3, and CCR5 in U937 cells. Then part cells were incubated with mouse anti CCR5 100 μg/ml, and/or rat anti CCR3 10 μg/ml for 30 minutes at 37° C., and corresponding mouse IgG and rat IgG as controls. Chemoattractants RANTES, C19 and C27 were diluted in HEPES-buffered RPMI 1640 medium supplemented with 0.5% BSA to indicate concentration, and placed in the lower wells (28 μl/well). U937 cells stimulated by IFN-γ were resuspended in the same medium at 1×10^6 cells/ml and added to the upper wells (50 μl/well), which were separated from the lower wells by a polyvinylpyrrolidone-free polycarbonate filter with 5-μm pores pre-coated by 0.001% fibronectin. The chamber was incubated for 2 hours at 37° C. in 5% CO2 and 95% air. Filters were removed from the chamber, washed, fixed, and stained with Three Step Stain Set. Cells that migrated were counted in 5 randomly selected high power fields (400×) per well. The group with no Chemoattractants in the lower wells was used as a control. All samples were assayed twice at least. The chemotactic index (CI) was calculated from the number of cells that migrated to the control. Significant chemotaxis was defined as CI>2.

[3] = target: T2, CCR5 (Homo sapiens, UniProt P51681); experiment: Calcium flux assay in CCR5-transfected HEK293 cells; conditions: for calcium flux: CCR5-transfected HEK293 cells, 167 nM C27 or C19, 100 nM RANTES; for desensitization of transfectants to subsequent RANTES treatment: CCR5 transfectants, first 167 nM peptide, then 100 nM RANTES
T2 construct: The cDNA fragments covering the open reading frames for various chemokine receptors were obtained as follows; expressed in transfected cells; host or cells: HEK293 (transient, electroporation)
From the text: The cDNA fragments covering the open reading frames for various chemokine receptors were obtained as follows. CCR4, CCR5 and CCR6 receptors were cloned from a K562 cell cDNA library by polymerase chain reaction (PCR). The primers were designed using the sequences from the following GenBank™ submissions: CCR4 (NM_005508.2), CCR5 (NM_000579) and CCR6 (AY242126). The fragments were cloned into an expression vector pcDI (modified in our lab from pcDNA3 vector (Invitrogen), in which the part between BgI II-Kpn I was replaced by the fragment of pCl vector (Promega) digested with BgI II-Kpn I) or pEGFP-N1 vector (CLONTECH) for efficient expression in HEK293 cells. The sequences coding receptors in expression plasmids were confirmed by DNA sequencing, which is consistent with the sequence submitted in GenBank™.
as §1
HEK293 cells transfected with pcDI-CCR4 or pcDI-CCR5 were grown in specialized glass-bottom microwell dishes (MatTek Corporation, U.S.A.) and loaded with 10 μM fluo-3/AM in HEPES-buffered saline at 37° C. for 1 hour in the dark. The cells were rinsed with HEPES-buffered saline and stimulated with 167 nM secreted CKLF1 peptides and 100 nM TARC or RANTES, respectively. Fluorescence was monitored at 488 nm (excitation wavelength) and 530 nm (emission wavelength) every 5 second using a Leica TCS-NT confocal fluorescence microscope with a 40× oil immersion lens (Wetzler, Heidelberg, Germany). The measurement was completed at room temperature and each field of cells was selected at random. Images were collected at 5 second intervals for 405 seconds. The images were analyzed for relative fluorescence using Leica confocal software. The relative fluorescence was determined using Microsoft Excel. All calcium flux assays were performed in the presence of extracellular calcium (in the absence of EDTA or EGTA) in the assay buffers. Therefore, both intracellular calcium release and extracellular calcium influx were analyzed.

T2 sequence (P51681 whole entry, the tested form may be a part): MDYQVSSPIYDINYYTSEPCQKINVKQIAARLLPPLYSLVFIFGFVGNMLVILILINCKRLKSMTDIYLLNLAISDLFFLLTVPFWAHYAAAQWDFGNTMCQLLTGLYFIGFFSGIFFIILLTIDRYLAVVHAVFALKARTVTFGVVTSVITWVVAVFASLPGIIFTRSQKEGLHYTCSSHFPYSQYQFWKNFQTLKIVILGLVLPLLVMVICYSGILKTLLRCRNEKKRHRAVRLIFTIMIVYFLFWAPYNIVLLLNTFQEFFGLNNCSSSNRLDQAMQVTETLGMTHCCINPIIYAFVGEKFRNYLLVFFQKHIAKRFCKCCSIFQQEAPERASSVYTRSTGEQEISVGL

ALIYRKL LFNPSGPYQKKPVHEKKEVL (ALIYRKLLFNPSGPYQKKPVHEKKEVL; listed as Homo sapiens) [C27]
migration (chemotaxis) of transfected cells ([1]; CCR4-transfected HEK293 cells): could induce migration
chemotaxis induced after PTX pretreatment [1]: completely abolished by PTX
desensitization of the receptor to subsequent stimulation with TARC, C27 or C19 (chemotaxis) [1]: could desensitize the receptor
migration (chemotaxis) of U937 cells [2]: could induce migration
chemotactic activity after neutralization of chemokine receptors ([2]; IFN-γ-stimulated U937 cells, mouse anti CCR5 and/or rat anti CCR3): had no chemotactic activity; also recorded: obviously inhibited
calcium flux [3]: a strong calcium flux
desensitization of transfectants to subsequent RANTES treatment [3]: could desensitize

FNPSGPYQKKPVHEKKEVL (listed as Homo sapiens) [C19]
chemotaxis induced after PTX pretreatment [1]: completely abolished by PTX
desensitization of the receptor to subsequent stimulation with TARC, C27 or C19 (chemotaxis) [1]: could desensitize the receptor
migration (chemotaxis) of U937 cells [2]: could induce migration
calcium flux [3]: a strong calcium flux
desensitization of transfectants to subsequent RANTES treatment [3]: could desensitize
